Paper PMC2914802

Assays:
Assay in all cases: steady-state hydrolysis kinetics
Format in all cases: biochemical, Burkholderia lata
Conditions in all cases: Zn2+; pH 8.0
[1] = substrate: CC(=O)N1CCC[C@H]1C(=O)O
[2] = substrate: CCC(=O)N1CCC[C@H]1C(=O)O
[3] = substrate: CCCC(=O)N1CCC[C@H]1C(=O)O

B1: Sgx9260c (Burkholderia lata) (protein)
chain: MTITVLQGGNVLDLERGVLLDHHHVVIDGDRIVEVTDRPVDFPNAQVIDVRGKTVMPGFIDCHVHVLASNANLGANATQPNILAAIRSLPILDAMLSRGFTSVRDAGGADWSLMQAVETGLVSGPRIFPSGKALSQTGGHGDFRPRGDLLEPCSCCFRTGAIARVVDGVEGVRLAVREEIQKGATQIKIMASGGVASPTDPIANTQYSEDEIRAIVDEAEAANTYVMAHAYTGRAIARAVRCGVRTIEHGNLVDEAAAKLMHEHGAFVVPTLVTYDALAKHGAEFGMPPESVAKVASVQQKGRESLEIYANAGVKMGFGSDLLGEMHEFQSGEFRIRAEVLGNLEALRSATTVAAEIVNMQGQLGVVAAGAIADLVVLDGNPLEDIGVVAGQGERVEYVLQRGRIVKAREFRRTMARE
Km [1]: 800 ± 100 µM
kcat [1]: 227 ± 9 s⁻¹
kcat/Km [1]: 280000 M⁻¹ s⁻¹
Km [2]: 1900 ± 200 µM
kcat [2]: 141 ± 6 s⁻¹
kcat/Km [2]: 74000 M⁻¹ s⁻¹
Km [3]: 2600 ± 300 µM
kcat [3]: 146 ± 6 s⁻¹
kcat/Km [3]: 56000 M⁻¹ s⁻¹
